This is an account of results in the DeepSol protein solubility set.

The data set is described as follows: soluble on expression in E. coli; label from the status in PepcDB or PDB records.
Turning to “MDDLIELEISKTQCIRIYLPCKKEDLDFFDCVTIEYLKEQTEYILYYKDLSGAAIISLKELLEKALNFKLQIENEYKDKGIGYYHSIYTNNIYANKLQTAGSQDLIDPTKDFLVWSTLGPTSIGTFIYNDQDKIYIEISPLYEWFNHIFDDILEEYNEVKDEDASFDDFLNNYKPIDIVAIDRKVAEKWLEFCCEMIEILKANDKKQLK”, the “soluble on expression in E. coli” value was “not soluble”.
Regarding “MGSSHHHHHHSSGLVPRGSHMSQFSFTKMHGLGNSYIYVNMFEEQIPEEDLALVAEKVSNINTGIGADGMILICPSDVAPVKMRMFNNDGSEGKSCGNGLRCVAKYAYEHKLVEDTVFTIETLAGIVTAEVTVEEGKVTLAKIDMGAPRLTRAEIPMLGEGETPFIRENFLYNNHRYAFTAVSMGNPHAVIFVDDVEQAPLTTLGPVLETHEMFPERVNVEFIEILNEEEMNFRVWERGSGVTQACGTGACAAVVASILNGKMERGKEITVHLAGGDLMIAWTEEGNVLMKGPAEVICRGVYEYKIEA”, the “soluble on expression in E. coli” value was “soluble”.
In the case of “MDGSQGSTDYGDHVVLRYGGTREMVPLIRHEQMLDMLMERARQIVQGFGNLDTRNMYLFRHEYNSPTLLYPITSASQITSGSILEIILVDRTEAAVIPHVVEPESYMRPTFCDFCGEMLTGLMRQGVKCKNCNGNFHKRCSNAARNNCGAPGAPGAQPSRPPILPPIPTTPTGFPVAALSTPTGLPHTLIEHSYRQFTVCKVCDHLLVGLVKQGLKCRDCGVNVHRKCAMELASNCVLSENAISRVNFTDPEGPGSSSSDNIPLFRLPGQVGTRATEKKKLEGWMMHFILSDPERRLKHYWMMQSNAIHLYNEYSEGIGVNPNRVYRIIPLAEITSVVQNNGKSVLAKHPPHCFEIRTTTNTVFCVGEDYHAFSGGPPKKIPRSMSVRPSSNTTMWFQFIKESLQPPSRNEDNAEQALEFANLYQVLSDKTLGSGQFGTVYSAIQRHSGKEVAVKVISKERFSKKGSGAESMRAEVAILQQTCHPGIVCLEFMCETKDKIFVVMEKMNGDMLEMILSQELGRLNSRATKFLLVQILCALKYLHDQGIAHCDLKPENVLLSDMGSNFPQTKICDFGYARFIPESQFRKTVVGTPAYLPPEVLQRKGYNKSLDMWSVGVIIYVTLSGTFPFNEGEEISEQIQNASFMFPTEPWSEVEPLAVDLIQKLLKVEIEARMSIEQCLDHGWLKGEQLYRDLRDLEVRLNTPRYLTSPQDDILYGTLVNP”, the “soluble on expression in E. coli” value is on record as “not soluble”.
To “MTTHHIKKSYSPNTKLSDLICENYDLLLVITRFGISLGFGEKSIREVCEDNKVNTNTLMAVINALINRPEHPSETVLSDLSAPSLINYLRKSHNYFLEFRLPLLRQDLLAALSNCPSEVVFVIRQFYDEYVEEVRKHMSYEEKTVFPYVEKLLGGKLDKRSHYRIDIFSKRHDQIELKISELKNLLIKYYPTSSGYELNSVLHDIFSSEDDLSAHNFVEDHLFVPLIRKIEKENGL” belongs “not soluble”; to “SQPLLDRSIPDFTAFTTVDDWLSAIKMVQYRDSFLTAGFTSLQLVTQMTSEDLLRIGITLAGHQKKILNSIHSMRVQISQSPTAMA”, “soluble”.
As to “MGSDKIHHHHHHMAESIRPLTKNDRQQFVTVMTKVFAKDPLFLYIFGDLYNDHRAQRRARTFMGFIFDKSMERQAEAVWGLFDKDTLLGTYVVESCPAETNHSFAELYRLMILIFRLSLQLPPKMTWQLNRYMRVTRAHAPSIPHHYLTIIGVRKEAQGAGRGRNLLEHIFGTIGSGELSLDTEKKENVTLYKKFGFVLTDVVKCGPINVYCMRKTIRPRQKN”, the “soluble on expression in E. coli” value was “not soluble”.
Next, “MESLTLQPIARVDGTINLPGSKSVSNRALLLAALAHGKTVLTNLLDSDDVRHMLNALTALGVSYTLSADRTRCEIIGNGGPLHAEGALELFLGNAGIAMRSLAAALCLGSNDIVLTGEPRMKERPIGHLVDALRLGGAKITYLEQENYPPLRLQGGFTGGNVDVDGSVSSQFLTALLMTAPLAPEDTVIRIKGDLVSKPYIDITLNLMKTFGVEIENQHYQQFVVKGGQSYQSPGTYLVEGDASSASYFLAAAAIKGGTVKVTGIGRNSMQGDIRFADVLEKMGATICWGDDYISCTRGELNAIDMDMNHIPDAAMTIATAALFAKGTTTLRNIYNWRVKETDRLFAMATELRKVGAEVEEGHDYIRITPPEKLNFAEIATYNDHRMAMCFSLVALSDTPVTILDPKCTAKTFPDYFEQLARISQAA”: “soluble”; “MAHHHHHHMNKEHILFDSFPLTFLSDEVDCSNFEDEQERTYRERIAQMTEELKSLRMEITEKHSIRSMLEEKVAMLQNEEQTKQNNLKYVLNFCDKQMYERELGNFHNHLEQLRKQIQNSNCKIKLLIEKEFKVRKQLQLRYMKLYDLLNERVRYILGDYVKHRKCACAIFAYRQEGQR”: “not soluble”.
Next, “MTTRDLFADHAPADDRRIALGEAAVVLRGFALAEATALLAAIDDIARQAPFRHMVTPGGFEMSVALTNCGALGWTSDRRGYRYAARDPQTGQPWPPLPDCFLRLARDAAAAAGFPGFTPDACLINRYVPGARLSLHQDKDEQDYGAPIVSVSLGMPAMFLWGGHRRTDKTLRVPLFHGDVVVWGGPDRLRYHGVLPLKEAAHPLLGAQRINLTLRRAGLEHHHHHH”: “soluble”.
Consider “MSLHGELDKIYETLALAERRGPGPVDLLLCCGDFQAVRNEADLRCMAVPPKYRHMQTFYRYYSGEKKAPVLTLFIGGNHEASNHLQELPYGGWVAPNIYYLGLAGVVKYRGVRIGGISGIFKSHDYRKGHFECPPYNSSTIRSIYHVRNIEVYKLKQLKQPIDIFLSHDWPRSIYHYGNKKQLLKTKSFFRQEVENNTLGSPAASELLEHLKPTYWFSAHLHVKFAALMQHQAKDKGQTARATKFLALDKCLPHRDFLQILEIEHDPSAPDYLEYDIEWLTILRATDDLINVTGRLWNMPENNGLHARWDYSATEEGMKEVLEKLNHDLKVPCNFSVTAACYDPSKPQTEGHHHHHH”, for which the “soluble on expression in E. coli” value is listed as “soluble”.
To “MGSDKIHHHHHHMKMIIGRKIGMTRVFVGNDSVPVTVIKAGPCVVVQKKTVEKDGYNAVQLGFEKAKKVNKPLAGHFKKFGVEPMKILREFRVENPDEYEPGQVIKVDVFEKGEYVDVTGWTKGRGFAGAMKRWGFSGGPKSHGSKFHRELGSVGQHTEPAKIWKGKKMPGRYGNERVTVRNLQVVDIDPENDLLVVKGGVPGARGGLVLIRSAKAPKK” belongs “not soluble”; to “MKIVLISGLSGSGKSVALRQMEDSGYFCVDNLPLEMLPALVSYHIERADETELAVSVDVRSGIDIGQAREQIASLRRLGHRVEVLFVEAEESVLVRRFSETRRGHPLSNQDMTLLESLKKEREWLFPLKEIAYCIDTSKMNAQQLRHAVRQWLKVERTGLLVILESFGFKYGVPNNADFMFDMRSLPNPYYDPELRPYTGMDKPVWDYLDGQPLVQEMVDDIERFVTHWLPRLEDESRSYVTVAIGCTGGQHRSVYIVEKLARRLKGRYELLIRHRQAQNLSDR”, “not soluble”; to “MSLGSTQLQLHGLLSNISSKEGTYAKLGGLYTQSLARLVAKCEDLFMGGQKKELHFNENNWSLFKLTCNKPCCDSGDAIYYCATCSEDPGSTYAVKICKAPEPKTVSYCSPSVPVHFNIQQDCGHFVASVPSSMLSSPDAPKDPVPALPTHPPAQEQDCVVVITREVPHQTASDFVRDSAASHQAEPEAYERRVCFLLLQLCNGLEHLKEHGIIHRDLCLENLLLVHCTLQAGPREKQLPRLIISNFLKAKQKPGGTPNLQQKKSQARLAPEIVSASQYRKFDEFQTGILIYELLHQPNPFEVRAQLRERDYRQEDLPPLPALSLYSPGLQQLAHLLLEADPIKRIRIGEAKRVLQCLLWGPRRELVQQPGTSEEALCGTLHNWIDMKRALMMMKFAEKAVDRREGHHHHHH”, “not soluble”.
Regarding “MSLGNPHMPLLLALSKGFVEPVYRAAFLASAASSGVLAALAVRPCDLESLAERLDIDDEDLPRLKEWLDMGIRLGDLGKREGCYKLRSLPAKALAQPGNDAIAAALEEVLRFHVPALLNGPRMLREGRRFSLDDQDGLVIARSTRVIQPLVEEAIARTLDRNAPVRLLEVGCGSGTYVRYAAELNPRLSALAVDLQQDVADSAAANMAEWGLTDRVETRQADLRTLDAQPQFDLVTLHNNIYYFPEAERVEALRRAHDLLAPGGRLLLTTSCKGGNVGLEALNLWFTYADFGGPLPQADALADQLRQAGFDDVEATRIVPGEQFHAFTGTSKRVAHAEGHHHHHH”, the “soluble on expression in E. coli” value was “not soluble”.
